This note sets out measurements from PMC2629775.

Experiment [1] addresses Mycobacterium leprae small heat shock protein (sHsp18) (Mycobacterium leprae). Description: SEC; Sephacryl column; sHsp18 purified by denaturing method, dialysed against 50 mM PBS with 200 mM NaCl, pH 7.2, 4°C, 6 hrs, acetone precipitated, resuspended in PBS.
For experiment [2] the target is unchanged. Description: SEC; as a1 but after extended dialysis against PBS; data not shown.
Experiment [3] has the same target. Description: native gel or EMSA; non-denaturing 7.5% polyacrylamide gel of MagneHis-purified sHsp18, against high molecular weight markers, Coomassie stain. On the technique in general: In EMSA bound probe runs differently from free probe, usually more slowly.

Usually stoichiometry N stands for the number of molecules, sites or subunits per partner or assembly. Turning to “Mycobacterium leprae small heat shock protein (sHsp18) (natural protein)”, the results for the stoichiometry N in experiment [1], in experiment [2] and in experiment [3] were 6, 9 and 9, respectively.
